Experimental data as given in patent US20200299380A1 (published 2020).

Legend:
[1] = target: T1, human ULBP-1-Fc (R&D systems) (human, UniProt Q9BZM6 26-216, limits assumed); experiment: SPR, antibody injected over immobilized ULBP-1-Fc
T1 construct: Bought; not shown: Fc of the bought fusion protein
T1 sequence (looked up): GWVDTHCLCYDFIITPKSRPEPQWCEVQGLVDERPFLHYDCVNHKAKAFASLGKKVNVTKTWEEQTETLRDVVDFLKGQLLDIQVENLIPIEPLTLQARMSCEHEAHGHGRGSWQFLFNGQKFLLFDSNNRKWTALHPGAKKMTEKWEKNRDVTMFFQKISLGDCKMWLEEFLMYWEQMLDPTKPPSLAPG
Protocol: (§1) For cross-binding study, the human ULBP-1-Fc (R&D systems*), MICB-Fc (*), ULBP-2-Fc (*) and ULBP-3-Fc (*) recombinant proteins were covalently immobilized respectively on the flow cell one to four of a CM5 sensorchip. Anti-MICA antibodies (at a constant concentration of 10 μg/ml) were injected for 2 minutes at a flow rate of 10 μl/min onto the four flow cells in parallel. After each cycle, Sensorchip was regenerated by a five second injection of appropriate regeneration buffer.

[2] = target: T2, human ULBP-2-Fc (R&D systems) (human, UniProt Q9BZM5 26-217, limits assumed); experiment: SPR, antibody injected over immobilized ULBP-2-Fc
T2 construct: Bought; not shown: Fc of the bought fusion protein
T2 sequence (looked up): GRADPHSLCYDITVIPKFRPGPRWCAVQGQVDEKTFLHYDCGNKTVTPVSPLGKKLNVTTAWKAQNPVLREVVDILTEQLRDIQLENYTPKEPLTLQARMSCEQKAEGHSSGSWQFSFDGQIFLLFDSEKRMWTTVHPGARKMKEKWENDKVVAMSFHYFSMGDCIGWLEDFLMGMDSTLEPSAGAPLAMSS
Protocol: as §1

[3] = target: T3, human ULBP-3-Fc (R&D systems) (human, UniProt Q9BZM4 30-217, limits assumed); experiment: SPR, antibody injected over immobilized ULBP-3-Fc
T3 construct: Bought; not shown: Fc of the bought fusion protein
T3 sequence (looked up): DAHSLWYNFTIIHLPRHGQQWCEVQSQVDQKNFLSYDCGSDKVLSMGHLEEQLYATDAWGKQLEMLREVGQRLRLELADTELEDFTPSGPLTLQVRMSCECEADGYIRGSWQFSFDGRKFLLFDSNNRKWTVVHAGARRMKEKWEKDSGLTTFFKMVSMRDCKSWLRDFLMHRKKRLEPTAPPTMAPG
Protocol: as §1

[4] = target: T4, MICA*001 expressed at the cell surface (human, UniProt Q29983 24-297); experiment: cell-based or functional assay
T4 sequence: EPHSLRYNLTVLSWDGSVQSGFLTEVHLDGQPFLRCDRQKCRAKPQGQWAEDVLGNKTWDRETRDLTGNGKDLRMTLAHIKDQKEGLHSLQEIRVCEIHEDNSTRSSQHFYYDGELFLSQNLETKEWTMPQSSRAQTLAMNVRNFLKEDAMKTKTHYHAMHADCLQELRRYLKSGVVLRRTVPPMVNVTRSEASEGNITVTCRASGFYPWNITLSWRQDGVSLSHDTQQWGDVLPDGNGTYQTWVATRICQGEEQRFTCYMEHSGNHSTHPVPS

[5] = target: T4, MICA*001 expressed at the cell surface; experiment: flow cytometry on C1R transfectant cells, 4-parameter logistic fit
Protocol: (§2) The binding of antibodies obtained from the first, second and third immunization series (including CHG1-M-MIA-19E9, CHG1-M-MIA-9C10, CHG1-M-MIA-6E4, CHG1-M-MIA-20C6, CHG1-M-MIA-16A8, CHG1-M-MIA-12A10, CHG1-M-MIA-10A7, CHG1-M-MIA-18E8, CHG1-M-MIA-10F3, CHG1-M-MIA-15F9 and CHG1-M-MIA-14B4) were tested for binding to MICA-expressing CR1 transfectant cells C1R-MICA*001, C1R-MICA*004, C1R-MICA*007 and C1R-MICA*008 (Pr. A. Steinle, Eberhard-Karls University Tuebingen, Germany) described in Salih et al. (2003) Blood 102(4): […]. Binding was analyzed by flow cytometry.
(§3) Cells were harvested and stained in PBS 1×/BSA 0.2%/EDTA 2 mM buffer during 30 minutes at 4° C. using a dose-range of the anti-MICA mAbs. After two washes in staining buffer, cells were stained for 30 min at 4° C. with mouse anti-human IgG1-PE monoclonal antibodies (1/11). After two washes, stainings were acquired on a BD FACS Canto II and analyzed using the FlowJo software.
(§4) Antibodies CHG1-M-MIA-19E9, CHG1-M-MIA-9C10, CHG1-M-MIA-6E4, CHG1-M-MIA-20C6, CHG1-M-MIA-12A10, CHG1-M-MIA-10A7, CHG1-M-MIA-18E8, CHG1-M-MIA-10F3, and CHG1-M-MIA-15F9 bound to each of the C1R-MICA*001, C1R-MICA*004, C1R-MICA*007 and C1R-MICA*008 cells (see FIG. 1A for antibodies CHG1-M-MIA-19E9, CHG1-M-MIA-9C10, CHG1-M-MIA-6E4, CHG1-M-MIA-20C6, CHG1-M-MIA-12A10, CHG1-M-MIA-10F3, and FIG. 1B for antibodies, CHG1-M-MIA-18E8, CHG1-M-MIA-15F9, CHG1-M-MIA-10A7). […] EC50 values are shown in Table C in μg/ml (calculated using a 4-parameter logistic fit).

[6] = target: T5, MICA*004 expressed at the cell surface (human, UniProt Q29983 24-297); experiment: as above
T5 construct: also called C1R-MICA*004; C1R-MICA*04
T5 chain: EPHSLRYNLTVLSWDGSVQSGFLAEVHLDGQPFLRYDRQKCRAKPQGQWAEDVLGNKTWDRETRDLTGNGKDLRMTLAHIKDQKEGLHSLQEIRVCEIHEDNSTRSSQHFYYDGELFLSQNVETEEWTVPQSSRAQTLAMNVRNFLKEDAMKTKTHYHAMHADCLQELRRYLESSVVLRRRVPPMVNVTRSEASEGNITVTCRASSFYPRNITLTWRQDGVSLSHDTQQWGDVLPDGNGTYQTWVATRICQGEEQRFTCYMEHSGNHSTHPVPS
Protocol: as §2, §3, §4

[7] = target: T6, MICA*007 expressed at the cell surface (human, UniProt Q29983 24-297); experiment: as above
T6 construct: also called C1R-MICA*007; C1R-MICA*07
T6 chain: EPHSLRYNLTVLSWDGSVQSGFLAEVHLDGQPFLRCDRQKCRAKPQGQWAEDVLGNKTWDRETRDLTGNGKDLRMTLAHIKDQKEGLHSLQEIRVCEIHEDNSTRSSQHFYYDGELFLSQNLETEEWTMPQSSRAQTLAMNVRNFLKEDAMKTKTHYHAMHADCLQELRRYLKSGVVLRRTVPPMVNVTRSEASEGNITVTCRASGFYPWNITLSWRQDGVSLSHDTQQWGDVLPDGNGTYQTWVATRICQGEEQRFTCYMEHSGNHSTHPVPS
Protocol: as §2, §3, §4

[8] = target: T7, MICA*008 expressed at the cell surface (human, UniProt Q29983 24-297); experiment: as above
T7 construct: also called C1R-MICA*008; C1R-MICA*08
T7 chain: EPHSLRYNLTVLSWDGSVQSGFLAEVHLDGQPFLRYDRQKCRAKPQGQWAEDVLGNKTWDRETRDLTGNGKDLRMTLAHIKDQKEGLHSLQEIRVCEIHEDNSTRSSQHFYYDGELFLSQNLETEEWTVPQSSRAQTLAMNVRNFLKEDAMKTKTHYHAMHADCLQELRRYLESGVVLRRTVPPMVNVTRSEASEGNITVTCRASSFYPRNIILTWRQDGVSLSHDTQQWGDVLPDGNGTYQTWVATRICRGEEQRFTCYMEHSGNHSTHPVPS
Protocol: as §2, §3, §4

[9] = target: T8, MICB-Fc (R&D Systems 1599-MB) (human, UniProt Q29980 23-298, limits assumed); experiment: SPR, antibody at 10 µg/ml injected over immobilized MICB-Fc
T8 construct: Bought; also called human MICB-Fc; not shown: Fc of the bought fusion protein
T8 sequence: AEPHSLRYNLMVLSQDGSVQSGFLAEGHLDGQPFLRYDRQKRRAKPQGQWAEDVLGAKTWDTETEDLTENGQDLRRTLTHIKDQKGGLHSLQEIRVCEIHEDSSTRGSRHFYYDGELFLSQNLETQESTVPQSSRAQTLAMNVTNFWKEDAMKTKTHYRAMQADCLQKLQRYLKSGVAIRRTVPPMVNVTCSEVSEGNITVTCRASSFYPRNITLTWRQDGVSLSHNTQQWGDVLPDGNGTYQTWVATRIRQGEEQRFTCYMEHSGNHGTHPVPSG
Protocol: as §1

[10] = target: T9, MICA*001-BirA (human, UniProt Q29983 24-297); experiment: SPR single cycle kinetics, monovalent mean KD at pH 7.4, antibody captured on Protein-G chip, MICA-BirA injected
T9 construct: also called MICA-BirA; MICA*01-BirA; not shown: BirA tag
T9 sequence: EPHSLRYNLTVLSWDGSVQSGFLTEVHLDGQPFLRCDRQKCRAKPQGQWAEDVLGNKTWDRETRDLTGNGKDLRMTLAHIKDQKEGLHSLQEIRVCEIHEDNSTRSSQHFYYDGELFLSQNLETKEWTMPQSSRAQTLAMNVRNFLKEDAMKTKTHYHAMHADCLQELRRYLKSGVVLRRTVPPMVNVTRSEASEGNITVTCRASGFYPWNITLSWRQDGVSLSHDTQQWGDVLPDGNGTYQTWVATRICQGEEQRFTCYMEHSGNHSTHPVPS
Protocol: For monovalent affinity measurement, chimeric anti-MICA antibodies were captured onto a Protein-G chip.
Affinities were determined using single cycle kinetics (SCK). SCK cycles were as follows: Successive 120s injections at 30 μl/min of 5 serial dilutions (0.01 to 100 nM) of MICA-His or MICA-BirA in ascending order (or of buffer for the blank injections to be subtracted during the analysis). After the last concentration is injected, complex is left to dissociate for 600s before regeneration by a 10s injection of appropriate regeneration buffer at 40 μl/min. After the regeneration, chip is left to stabilise for 60s in running buffer. Curves are fitted using Biacore T100 Evaluation software.

Binder | binding result [1] | binding result [2] | binding result [3] | CDC: EC50 of the increase in dead (7-AAD positive) Raji-MICA*01 cells with human complement [4] | EC50 [5] | EC50 [6] | EC50 [7] | EC50 [8] | binding result [9] | Kd [10]
CHG1-M-MIA-19E9 (antibody, human IgG1, V domains shown, also called chimeric anti-MICA 19E9) VH: DVQLQESGPGLVKPSQSLSLTCTVTGYSITSDYAWNWIRQFPGNKLEWMGFVSYSGTTKYNPSLKSRISITRDTSENQFFLQLNSVTSEDTATYYCARGYGFDYWGQGTTLTVSS VL: EIVLTQSPTTMAASPGEKITITCSATSSISSIYFHWYQQRPGFSPKLLIYRTSNLASGVPARFSGSGSGTSYSLTIGTMEAEDVATYYCQQGTTIPFTFGSGTKLEIK | no binding (tested: 10 µg/ml) | no binding (tested: 10 µg/ml) | no binding (tested: 10 µg/ml) |  |  |  |  |  |  | 
CHG1-M-MIA-9C10 (antibody, human IgG1, V domains shown, also called chimeric anti-MICA 9C10) VH: QVQLQQPGAELVRPGTSVNLSCKASGYSFTRYWMNWVKQRPGQGLEWIGMIHPSDSETRLNQKFKDKATLTVDKSSSTAYMQLSSPTSEDSAVYYCGYGNFFYVMDYWGQGTSVTVSS VL: DILLTQSPAILSVSPGERVSFSCRASQSIGTSIHWYQQRTNGSPRLLIKFASESISGIPSRFSGSGSGTDFTLNINSVESEDIADYYCQQSNFWPFTFGSGTKLEVK | no binding (tested: 10 µg/ml) | no binding (tested: 10 µg/ml) | no binding (tested: 10 µg/ml) | 2 mg/L | 2.09 mg/L | 0.13 mg/L | 2.83 mg/L | 0.13 mg/L |  | 
CHG1-M-MIA-15F9 (antibody, human IgG1, V domains shown, the VH entry ends with ASTK) VH: DVQLQESGPDLVKPSQSLSLTCTVTGYSITSGYSWHWIRQFPGNKLEWMGFIHYSGSTDYNPSLKSRISLTRDTSKNQFFLQLNSVSTEDTATYYCAKDYGHWYFDVWGAGTTVTVSS VL: SIVMTQTPKFLLVSAGDRVTITCKASQSVSYDVAWYQQKPGQSPKLLIFYASNRYTGVPARFTGSGYGTDFTFTISTVQAEDLAVYFCQQDYSSLTFGAGTKLELK |  |  |  |  | 0.68 mg/L | 0.43 mg/L | 1.81 mg/L | 0.79 mg/L | binds | 0.061 µM
